Source: US20240092922A1 (EUCURE BEIJING BIOPHARMA, published 2024)

T1: monkey (Rhesus macaque) 4-1BB (r4-1BB) on transfected CHO cells (monkey (Rhesus macaque), UniProt Q07011 24-255 (human entry))
T1 construct: also called rm4-1BB; CHO-r4-1BB
T1 chain: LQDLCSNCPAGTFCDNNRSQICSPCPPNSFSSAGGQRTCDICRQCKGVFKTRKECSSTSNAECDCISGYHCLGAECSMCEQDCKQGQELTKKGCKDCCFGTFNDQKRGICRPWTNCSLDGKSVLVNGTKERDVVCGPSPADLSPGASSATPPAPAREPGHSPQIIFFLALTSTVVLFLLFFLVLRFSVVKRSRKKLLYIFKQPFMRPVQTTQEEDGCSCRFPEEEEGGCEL


Tests used:
[1] = target: T2, human 4-1BB (h4-1BB) on transiently transfected CHO cells (human, UniProt Q07011 24-255); experiment: flow cytometry, CHO cells transfected with human 4-1BB, antibody at 0.01 µg/ml
T2 construct: also called TNFRSF9; CD137
Procedure: (§1) 25 μl CHO cells transiently transfected with human 4-1BB were added to each well in a plate. The purified antibodies were titrated to final concentrations of 10, 1, 0.1, 0.01, 0.001 μg/ml. The titrated antibodies were added to each well at 4° C. and incubated for 30 minutes.
(§2) After being washed with phosphate-buffered saline (PBS) (1200 rpm, 5 minutes) twice, 50 μl of FITC labeled anti-mouse IgG Fc antibody (anti-mIgG Fc-FITC) at 1:100 dilution was added into each well, and incubated for 30 minutes at 4° C., followed by PBS wash (1200 rpm, 5 minutes). The signal for FITC was detected by flow cytometry.

[2] = target: T2, human 4-1BB (h4-1BB) on transiently …; experiment: flow cytometry, CHO cells transfected with human 4-1BB, antibody at 10 µg/ml
Procedure: as §1, §2

[3] = target: T2, human 4-1BB (h4-1BB) on transiently …; experiment: flow cytometry, CHO cells transfected with human 4-1BB, antibody at 1 µg/ml
Procedure: as §1, §2

[4] = target: T3, mouse 4-1BB (m4-1BB) on transfected CHO cells (mouse, UniProt P20334 24-256); experiment: flow cytometry on CHO cells transfected with mouse 4-1BB
T3 construct: also called CHO-m4-1BB
Procedure: (§3) 25 μl CHO cells were added to each well. 25 μl purified anti-h4-1BB antibodies (1 μg/ml) were added to each well and were incubated at 4° C. for 30 minutes.
(§4) After being washed with PBS (1200 rmp, 5 min) twice, 50 μl of FITC labeled anti-mouse IgG Fc antibody (anti-mIgG Fc-FITC) was added into each well at 1:100 dilution, followed by incubating at 4° C. for 30 minutes, and then PBS wash (1200 rmp, 5 min). In some cases, PE labeled anti-mouse IgG Fc antibody (anti-mIgG Fc-PE) was used to label the antibody instead, and was added into each tested well at 1:500 dilution. The signals for FITC and PE were determined by flow cytometry.

[5] = target: T2, human 4-1BB (h4-1BB) on transiently …; experiment: flow cytometry, CHO cells transfected with human 4-1BB, antibody at 0.1 µg/ml
Procedure: as §1, §2

[6] = target: T1, monkey (Rhesus macaque) 4-1BB (r4-1BB) …; experiment: flow cytometry on transfected CHO cells;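 also: antibodies tested at 1 µg/ml on CHO cells for 30 min at 4 °C, binding detected with FITC- or PE-labeled anti-mouse IgG Fc secondary by flow cytometry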
Procedure: as §3, §4

[7] = target: T4, chimeric (mouse and human) 4-1BB (c4-1BB) on transfected CHO cells (chimeric (mouse and human)); experiment: flow cytometry on transfected CHO cells;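 also: antibodies tested at 1 µg/ml on CHO cells for 30 min at 4 °C, binding detected with FITC- or PE-labeled anti-mouse IgG Fc secondary by flow cytometry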
T4 construct: also called chi4-1BB; CHO-c4-1BB
Procedure: as §3, §4

[8] = target: T2, human 4-1BB (h4-1BB) on transiently …; experiment: flow cytometry, CHO cells transfected with human 4-1BB, antibody at 0.001 µg/ml
Procedure: as §1, §2

Row | percentage of cells with FITC signal [1] [%] | percentage of cells with FITC signal [2] [%] | percentage of cells with FITC signal [3] [%] | binding result [4] | percentage of cells with FITC signal [5] [%] | binding result [6] | binding result [7] | percentage of cells with FITC signal [8] [%] | Binder
1 | 6.21 | 58.6 | 56.1 | no binding (tested: 1 µg/ml) | 43.9 | binds | binds | 1.38 | 45-8F1 (antibody, V domains shown, mouse antibody purified from ascites) VH: EVQLQQSGTVLARPGASVKMSCKASGYSFTSYWMHWVKQRPGQGLEWIGVIYPGNSDTSYNQKFKGKAKLTAVTSASTAYMDLSSLTNEDSAVYYCTRGITTAPDYWGQGTTLTVSS VL: NIVMTQSPKSMSMSVGERVTLSCKASENVGIHVSWYQQKPEQSPKLLIYGASSGYNGVPDRFTGSGSATDFTLTISSVQPEDLADYHCGQTYSYPFTFGSGTKLEIK
2 | 1.2 | 56.2 | 49.3 | no binding (tested: 1 µg/ml) | 10.4 | binds | binds | 1.86 | 45-4B9 (antibody, V domains shown, mouse antibody purified from ascites) VH: EVQLQQSGPELVKPGASVKMSCKASGYTFTTYVMYWVKQRPGQGLEWIGYINPYNDDIRYNEKFKGKATLTSDRSSSTAYMELSSLTSEDSAVYLCARQGGDYWGQGTILTVSS VL: DVQITQSPSYLAASPGETITVNCRASKNINKYLAWYQEKPGKTNKLLIYSGSTLQSGIPSRFSGSGSGTDFTLTISSLEPEDFAVYHCQQYNEYPLTFGAGTKLEMK
3 | 0.622 | 62.2 | 51.8 | no binding (tested: 1 µg/ml) | 12 | binds | binds | 0.504 | 45-2B3 (antibody, V domains shown, mouse antibody purified from ascites) VH: QVQLQQSGPELVKPGASVKISCKTSGYAFSTSWMNWVKQRPGQGLEWIGRIYPGDGDTDYNGRFKGKATLTADKSSSTAYLQLSSLTSVDSAVYFCARLDGYYEVFYFDYWGQGTTLTVSS VL: not shown

Further lines, the binder ahead of its results:

Row | Binder | percentage of cells with FITC signal [1] [%] | percentage of cells with FITC signal [2] [%] | percentage of cells with FITC signal [3] [%] | binding result [4] | percentage of cells with FITC signal [5] [%] | binding result [6] | binding result [7] | percentage of cells with FITC signal [8] [%]
4 | 29-6A5 (antibody, V domains shown, mouse antibody purified from ascites) VH: QVQLQQPGAELVRPGASVKLSCKASGYTFSSYWINWVKQRPGQGLEWIGNIYPSDSYTNYNQKFKDKATLTVDKSSSTAYMQLSSPTSDDSAVYYCTRTWEFYYDSVFDYWGQGTTLTVSS VL: DIKMTQSPSSMYASLGERVTITCKASQDINSYLSWFQQKPGKSPKTLIYRANRLVDGVPSRFSGSGSGQDYSLTISSLEYEDMGIYYCLQYDELPPTFGGGTKLEIK | 47.4 | 80.5 | 73.4 | no binding (tested: 1 µg/ml) | 70.8 | binds | binds | 
5 | 45-7E9 (antibody, V domains shown, mouse antibody purified from ascites) VH: QVQLKQSGPGLVQPSQSLSITCTVSGFSLTTYGVHWVRQPPGKGLEWLGVIWSDGNTDYNDAFISRLSITKDNSTSQVFFKMNGLQADDTAIYYCARNSITSVSFDCWGQGTTLTVSS VL: DIVMTQSQKFMSTSVGDRVSVTCKASQNVGTTVAWYQQRPGQSPKALICSASYRYSGVPDRFTGSGSGTDFTLTISNVQSEDLAEYFCQQYNSYPLTFGSGTKLEIK | 12.7 | 57.6 | 58.4 | no binding (tested: 1 µg/ml) | 50 | binds | binds | 0.703
